In article PMC3328447, “DNA Aptamers against the Lup an 1 Food Allergen”:

Key:
[1] = test system: beta-conglutin (Lup an 1) (lupin); test: SPR; settings: 10 mM phosphate, 138 mM NaCl, 2.7 mM KCl, 1.5 mM MgCl2, pH 7.4; ELONA at 21 C, SPR temperature not stated (Biacore 3000, CM5)
[2] = test system: beta-conglutin (Lup an 1) (lupin); test: competition; settings: 10 mM phosphate, 138 mM NaCl, 2.7 mM KCl, 1.5 mM MgCl2, pH 7.4; ELONA at 21 C, SPR temperature not stated (Biacore 3000, CM5)
[3] = biological target: T1, gamma-conglutin (lupin, UniProt Q9FSH9;Q9FSH9 34-300;301-452); test: SPR; 10 uM DNA, 1.5 mM Mg2+; signal negligible; 10 mM phosphate, 138 mM NaCl, 2.7 mM KCl, 1.5 mM MgCl2, pH 7.4; ELONA at 21 C, SPR temperature not stated (Biacore 3000, CM5); settings: protein: native, tags: none, label: none, single strand, predicted stem-loops and G-quadruplex (m-fold, QGRS)
T1 sequence 1: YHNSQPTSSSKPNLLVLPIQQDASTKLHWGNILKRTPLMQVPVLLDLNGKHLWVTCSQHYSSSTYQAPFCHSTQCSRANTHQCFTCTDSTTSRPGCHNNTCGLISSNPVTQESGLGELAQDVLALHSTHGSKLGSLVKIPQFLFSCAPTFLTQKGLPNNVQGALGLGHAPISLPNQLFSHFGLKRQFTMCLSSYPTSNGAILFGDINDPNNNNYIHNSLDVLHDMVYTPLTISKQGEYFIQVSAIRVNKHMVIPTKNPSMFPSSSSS
T1 sequence 2: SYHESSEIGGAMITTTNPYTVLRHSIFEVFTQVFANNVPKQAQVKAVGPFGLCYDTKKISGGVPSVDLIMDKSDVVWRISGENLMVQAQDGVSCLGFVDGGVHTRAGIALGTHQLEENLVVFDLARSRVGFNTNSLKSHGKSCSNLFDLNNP

“AGCTGACACAGCAGGTTGGTGGGGGTGGCTCACATCATGGTAGAATGACTGAACAGCGTTGATTAAAAGGCACGAGTCGAGCAATCTCGAAAT [Sequence 2 (S2)]” was tested, and the Kd [1] was 515 nM.

“AGCTGACACAGCAGGTTGGTGGGGGTGGCTTCCAGTTGGGTTGACAATACGTAGGGACACGAAGTCCAACCACGAGTCGAGCAATCTCGAAAT [Sequence 40 (S40)]” gave a Kd [1] of 360 nM and an IC50 [2] of 393 nM.

B1: Sequence 40 (S40) (structured_DNA)
DNA: AGCTGACACAGCAGGTTGGTGGGGGTGGCTTCCAGTTGGGTTGACAATACGTAGGGACACGAAGTCCAACCACGAGTCGAGCAATCTCGAAAT
B1: no binding ([3]; biotinylated probe S4 hybridised to 3' end for ELONA detection).

B2: Sequence 2 (S2) (structured_DNA)
DNA: AGCTGACACAGCAGGTTGGTGGGGGTGGCTCACATCATGGTAGAATGACTGAACAGCGTTGATTAAAAGGCACGAGTCGAGCAATCTCGAAAT
B2: no binding [3].
